Assay results as given in paper PMC9482650, “Quantitative fragmentomics allow affinity mapping of interactomes” (Nature Communications, 2022).
Positions count from the first letter of the chain named.

Tests used:
Experiment in all cases: holdup assay
Set-up in all cases: key: below the threshold = too weak to quantify, mostly under pKd 3.1 to 4
SNTG1, Q9NSN8 = target: T1, SNTG1, Q9NSN8
T1 sequence (Q9NSN8 52-150, limits assumed, looked up): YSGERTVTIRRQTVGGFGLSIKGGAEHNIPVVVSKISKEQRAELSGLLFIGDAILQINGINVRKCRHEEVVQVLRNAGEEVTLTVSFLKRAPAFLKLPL

NHERF3_4, Q5T2W1 = target: T2, NHERF3_4, Q5T2W1
T2 sequence (Q5T2W1 373-468, limits assumed, looked up): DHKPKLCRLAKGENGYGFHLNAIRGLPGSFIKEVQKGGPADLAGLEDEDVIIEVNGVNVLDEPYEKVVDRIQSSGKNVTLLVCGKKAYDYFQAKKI

GRASP, Q7Z6J2 = target: GRASP, Q7Z6J2
MPDZ_5, O75970 = target: T3, MPDZ_5, O75970
T3 sequence (O75970 695-796, limits assumed, looked up): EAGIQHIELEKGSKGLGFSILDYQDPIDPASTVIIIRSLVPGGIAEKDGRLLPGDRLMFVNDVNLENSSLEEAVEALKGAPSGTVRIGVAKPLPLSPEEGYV

SNTB1, Q13884 = target: T4, SNTB1, Q13884
T4 sequence (Q13884 107-205, limits assumed, looked up): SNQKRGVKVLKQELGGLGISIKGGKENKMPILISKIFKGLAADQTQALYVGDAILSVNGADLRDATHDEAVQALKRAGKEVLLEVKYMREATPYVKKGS

LRRC7, Q96NW7 = target: T5, LRRC7, Q96NW7
T5 sequence (Q96NW7 1440-1537, limits assumed, looked up): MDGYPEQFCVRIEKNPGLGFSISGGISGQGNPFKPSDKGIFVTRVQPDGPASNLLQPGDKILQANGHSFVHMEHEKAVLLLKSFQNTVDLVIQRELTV

LNX2_3, Q8N448 = target: T6, LNX2_3, Q8N448
T6 sequence (Q8N448 463-564, limits assumed, looked up): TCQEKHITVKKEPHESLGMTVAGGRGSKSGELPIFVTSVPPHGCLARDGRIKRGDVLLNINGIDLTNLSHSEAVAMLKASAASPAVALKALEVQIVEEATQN

TJP2_1, Q9UDY2 = target: TJP2_1, Q9UDY2
PDZRN4_1, Q6ZMN7 = target: PDZRN4_1, Q6ZMN7
MAGI2_6, Q86UL8 = target: MAGI2_6, Q86UL8
ARHGAP21, Q5T5U3 = target: T7, ARHGAP21, Q5T5U3
T7 sequence (Q5T5U3 45-169, limits assumed, looked up): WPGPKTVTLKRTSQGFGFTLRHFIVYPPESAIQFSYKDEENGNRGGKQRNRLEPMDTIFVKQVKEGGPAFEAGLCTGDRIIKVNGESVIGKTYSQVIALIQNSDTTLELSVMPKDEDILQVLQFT

PICK1, Q9NRD5 = target: PICK1, Q9NRD5
LIN7A, O14910 = target: T8, LIN7A, O14910
T8 sequence (O14910 103-200, limits assumed, looked up): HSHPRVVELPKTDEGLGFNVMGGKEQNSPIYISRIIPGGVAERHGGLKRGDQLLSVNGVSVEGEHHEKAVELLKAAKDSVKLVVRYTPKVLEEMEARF

Inadl_9, Q8NI35 = target: Inadl_9, Q8NI35
IL16_4, Q14005 = target: IL16_4, Q14005
HTRA3, P83110 = target: T9, HTRA3, P83110
T9 sequence (P83110 354-453, limits assumed, looked up): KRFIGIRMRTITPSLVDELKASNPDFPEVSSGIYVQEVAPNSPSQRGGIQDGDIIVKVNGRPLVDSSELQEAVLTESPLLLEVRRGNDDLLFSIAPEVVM

GRID2IP_1, A4D2P6 = target: GRID2IP_1, A4D2P6
GRIP1_5, Q9Y3R0 = target: T10, GRIP1_5, Q9Y3R0
T10 sequence (Q9Y3R0 568-668, limits assumed, looked up): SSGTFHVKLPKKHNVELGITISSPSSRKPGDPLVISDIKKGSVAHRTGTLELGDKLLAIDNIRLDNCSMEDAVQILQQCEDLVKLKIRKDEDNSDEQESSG

Inadl_1, Q8NI35 = target: Inadl_1, Q8NI35
AHNAK1, Q09666 = target: AHNAK1, Q09666
TIAM2, Q8IVF5 = target: T11, TIAM2, Q8IVF5
T11 sequence (Q8IVF5 885-986, limits assumed, looked up): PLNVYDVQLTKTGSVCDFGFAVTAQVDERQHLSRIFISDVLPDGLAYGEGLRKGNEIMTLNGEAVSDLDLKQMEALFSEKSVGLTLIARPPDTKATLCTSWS

LIN7B, Q9HAP6 = target: T12, LIN7B, Q9HAP6
T12 sequence (Q9HAP6 88-185, limits assumed, looked up): T8 sequence (O14910 103-200, limits assumed, looked up) with S2A, V20I, I35V, E42D, H65Q, K77Q, D78G, K89R

CARD11, Q9BXL7 = target: T13, CARD11, Q9BXL7
T13 sequence (Q9BXL7 662-765, limits assumed, looked up): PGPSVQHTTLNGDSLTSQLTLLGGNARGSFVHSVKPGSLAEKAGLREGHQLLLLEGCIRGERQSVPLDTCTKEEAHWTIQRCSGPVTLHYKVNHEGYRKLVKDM

MAGI1_1, Q96QZ7 = target: MAGI1_1, Q96QZ7
[1] = plain residues with an end cap or a label only (N-terminal biotin on a linker: ado-ado)
[2] = plain residues with an end cap or a label only (N-terminal biotin on a linker: ttds)
[3] = plain residues with an end cap or a label only (N-terminal biotin on a linker: ahx)

Chain of GRID2IP_1, A4D2P6 (A4D2P6 1-87): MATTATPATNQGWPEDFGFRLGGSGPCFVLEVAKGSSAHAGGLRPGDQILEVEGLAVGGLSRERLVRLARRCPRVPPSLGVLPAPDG
Chain of PDZRN4_1, Q6ZMN7 (Q6ZMN7 213-318): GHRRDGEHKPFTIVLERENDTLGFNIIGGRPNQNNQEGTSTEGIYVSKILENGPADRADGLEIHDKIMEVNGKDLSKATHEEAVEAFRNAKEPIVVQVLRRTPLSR
Chain of Inadl_9, Q8NI35 (Q8NI35 1530-1615): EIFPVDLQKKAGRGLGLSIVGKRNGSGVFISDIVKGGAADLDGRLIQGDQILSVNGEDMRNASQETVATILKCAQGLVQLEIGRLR
Chain of AHNAK1, Q09666 (Q09666 4-100): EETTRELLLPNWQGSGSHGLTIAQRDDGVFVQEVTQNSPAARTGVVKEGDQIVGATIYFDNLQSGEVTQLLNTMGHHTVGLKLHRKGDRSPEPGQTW
Chain of Inadl_1, Q8NI35 (Q8NI35 113-229): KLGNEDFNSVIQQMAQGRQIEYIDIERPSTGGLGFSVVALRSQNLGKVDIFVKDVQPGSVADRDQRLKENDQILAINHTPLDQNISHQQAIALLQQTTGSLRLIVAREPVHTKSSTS
Chain of MAGI1_1, Q96QZ7 (Q96QZ7 1-106): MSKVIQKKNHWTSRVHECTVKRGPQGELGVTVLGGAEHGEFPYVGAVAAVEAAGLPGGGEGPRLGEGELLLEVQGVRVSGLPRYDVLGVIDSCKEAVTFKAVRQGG
Chain of GRASP, Q7Z6J2 (Q7Z6J2 96-193): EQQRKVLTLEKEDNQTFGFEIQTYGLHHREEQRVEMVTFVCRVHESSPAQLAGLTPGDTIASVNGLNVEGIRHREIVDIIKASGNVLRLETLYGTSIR
Chain of PICK1, Q9NRD5 (Q9NRD5 17-115): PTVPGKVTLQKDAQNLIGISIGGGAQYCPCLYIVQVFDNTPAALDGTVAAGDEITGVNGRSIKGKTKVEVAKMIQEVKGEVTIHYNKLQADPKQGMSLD
Chain of TJP2_1, Q9UDY2 (Q9UDY2 24-128): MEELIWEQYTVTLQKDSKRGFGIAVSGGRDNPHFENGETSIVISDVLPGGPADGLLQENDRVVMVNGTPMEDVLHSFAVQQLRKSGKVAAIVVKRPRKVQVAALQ
Chain of IL16_4, Q14005 (Q14005 1229-1329): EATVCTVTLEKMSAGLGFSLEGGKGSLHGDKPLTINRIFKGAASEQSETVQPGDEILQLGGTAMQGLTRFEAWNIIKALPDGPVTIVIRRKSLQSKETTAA
Chain of MAGI2_6, Q86UL8 (Q86UL8 1141-1229): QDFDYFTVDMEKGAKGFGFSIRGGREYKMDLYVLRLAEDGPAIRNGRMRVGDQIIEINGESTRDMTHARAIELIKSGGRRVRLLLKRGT

B1: HTR2C, P28335 (peptide)
chain: SVVSERISSV
- pKd (SNTG1, Q9NSN8; [1]): 4.06
- pKd (NHERF3_4, Q5T2W1; [1]): below the threshold
- pKd (GRASP, Q7Z6J2; [1]): 4.55
- pKd (MPDZ_5, O75970; [1]): below the threshold
- pKd (SNTB1, Q13884; [1]): 4.89
- pKd (LRRC7, Q96NW7; [1]): below the threshold
- pKd (LNX2_3, Q8N448; [1]): below the threshold
- pKd (TJP2_1, Q9UDY2; [1]): below the threshold
- pKd (PDZRN4_1, Q6ZMN7; [1]): below the threshold
- pKd (MAGI2_6, Q86UL8; [1]): 4.64
- pKd (ARHGAP21, Q5T5U3; [1]): below the threshold
- pKd (PICK1, Q9NRD5; [1]): below the threshold
- pKd (LIN7A, O14910; [1]): below the threshold
- pKd (Inadl_9, Q8NI35; [1]): below the threshold
- pKd (IL16_4, Q14005; [1]): below the threshold
- pKd (HTRA3, P83110; [1]): below the threshold
- pKd (GRID2IP_1, A4D2P6; [1]): below the threshold
- pKd (GRIP1_5, Q9Y3R0; [1]): below the threshold
- pKd (Inadl_1, Q8NI35; [1]): below the threshold
- pKd (AHNAK1, Q09666; [1]): below the threshold
- pKd (TIAM2, Q8IVF5; [1]): 3.88
- pKd (LIN7B, Q9HAP6; [1]): 3.7
- pKd (CARD11, Q9BXL7; [1]): below the threshold
- pKd (MAGI1_1, Q96QZ7; [1]): below the threshold

B2: PBK, Q96KB5 (peptide)
chain: HIVEALETDV
- pKd (SNTG1, Q9NSN8; [2]): 5.68
- pKd (NHERF3_4, Q5T2W1; [2]): below the threshold
- pKd (GRASP, Q7Z6J2; [2]): below the threshold
- pKd (MPDZ_5, O75970; [2]): below the threshold
- pKd (SNTB1, Q13884; [2]): 5.29
- pKd (LRRC7, Q96NW7; [2]): 3.91
- pKd (LNX2_3, Q8N448; [2]): below the threshold
- pKd (TJP2_1, Q9UDY2; [2]): below the threshold
- pKd (PDZRN4_1, Q6ZMN7; [2]): below the threshold
- pKd (MAGI2_6, Q86UL8; [2]): 5.35
- pKd (ARHGAP21, Q5T5U3; [2]): 3.91
- pKd (PICK1, Q9NRD5; [2]): below the threshold
- pKd (LIN7A, O14910; [2]): below the threshold
- pKd (Inadl_9, Q8NI35; [2]): below the threshold
- pKd (IL16_4, Q14005; [2]): below the threshold
- pKd (HTRA3, P83110; [2]): below the threshold
- pKd (GRID2IP_1, A4D2P6; [2]): below the threshold
- pKd (GRIP1_5, Q9Y3R0; [2]): below the threshold
- pKd (Inadl_1, Q8NI35; [2]): below the threshold
- pKd (AHNAK1, Q09666; [2]): below the threshold
- pKd (TIAM2, Q8IVF5; [2]): below the threshold
- pKd (LIN7B, Q9HAP6; [2]): below the threshold
- pKd (CARD11, Q9BXL7; [2]): below the threshold
- pKd (MAGI1_1, Q96QZ7; [2]): below the threshold

B3: RGS12, O14924 (peptide)
chain: KTSAHHATFV
- pKd (SNTG1, Q9NSN8; [3]): 3.55
- pKd (NHERF3_4, Q5T2W1; [3]): below the threshold
- pKd (GRASP, Q7Z6J2; [3]): 4.12
- pKd (MPDZ_5, O75970; [3]): 3.58
- pKd (SNTB1, Q13884; [3]): 3.47
- pKd (LRRC7, Q96NW7; [3]): 3.59
- pKd (LNX2_3, Q8N448; [3]): below the threshold
- pKd (TJP2_1, Q9UDY2; [3]): 4.45
- pKd (PDZRN4_1, Q6ZMN7; [3]): below the threshold
- pKd (MAGI2_6, Q86UL8; [3]): 4.02
- pKd (ARHGAP21, Q5T5U3; [3]): below the threshold
- pKd (PICK1, Q9NRD5; [3]): below the threshold
- pKd (LIN7A, O14910; [3]): below the threshold
- pKd (Inadl_9, Q8NI35; [3]): 4.42
- pKd (IL16_4, Q14005; [3]): below the threshold
- pKd (HTRA3, P83110; [3]): 4.42
- pKd (GRID2IP_1, A4D2P6; [3]): below the threshold
- pKd (GRIP1_5, Q9Y3R0; [3]): below the threshold
- pKd (Inadl_1, Q8NI35; [3]): below the threshold
- pKd (AHNAK1, Q09666; [3]): below the threshold
- pKd (TIAM2, Q8IVF5; [3]): below the threshold
- pKd (LIN7B, Q9HAP6; [3]): below the threshold
- pKd (CARD11, Q9BXL7; [3]): below the threshold
- pKd (MAGI1_1, Q96QZ7; [3]): below the threshold
